Experimental data reported in patent US20110124564A1, “NUCLEOLIN-BINDING PEPTIDES, NUCLEOLIN- BINDING LYTIC PEPTIDES, FUSION CONSTRUCTS AND METHODS OF MAKING AND USING SAME” (ESPERANCE PHARMACEUTICALS, INC., published 2011).
Values joined by “and” are separate entries in the source; they are usually repeats but may differ in a detail not shown here. Identical values can stand only once. Residues, ends and D or L forms follow the SMILES beside them.

B1: KFAKFAKKFAKFAKKFAKS19ARLSAK25 (peptide)
chain: KFAKFAKKFAKFAKKFAKSARLSAK
B2: KFAKFAKKFAKFAKKFAKR19ARLQRR25 (peptide)
chain: KFAKFAKKFAKFAKKFAKRARLQRR
B3: KFAKFAKKFAKFAKKFAKR19ARLQRRF26 (peptide)
chain: KFAKFAKKFAKFAKKFAKRARLQRRF
B4: KFAKFAKKFAKFAKKFAKF19ARLFAK25 (peptide)
chain: KFAKFAKKFAKFAKKFAKFARLFAK
B5: KFAKFAKKFAKFAKKFAKK19RAPQRRSARLSAK32 (peptide)
chain: KFAKFAKKFAKFAKKFAKKRAPQRRSARLSAK
B6: KFAKFAKKFAKFAKKFAKR19LQRRFARLFAK30 (peptide)
chain: KFAKFAKKFAKFAKKFAKRLQRRFARLFAK
B7: KFAKFAKKFAKFAKKFAKV19ARLQRRFA27 (peptide)
chain: KFAKFAKKFAKFAKKFAKVARLQRRFA
B8: KFAKFAKKFAKFAKKFAKR19ARLQ23 (peptide)
chain: KFAKFAKKFAKFAKKFAKRARLQ
B9: KFAKFAKKFAKFAKKFAKR19LQRRSARLSAK30 (peptide)
chain: KFAKFAKKFAKFAKKFAKRLQRRSARLSAK
B10: KFAKFAKKFAKFAKKFAKV19ARLQRRFARLFAK32 (peptide)
chain: KFAKFAKKFAKFAKKFAKVARLQRRFARLFAK

The molecules below were run against nucleolin expressed on the surface of human cancer cell lines (human, UniProt P19338) (assay: cell-based or functional assay). Conditions: not given.

In order of falling “IC50 of cytotoxicity (MTT), MDA-MB-435S breast cancer cells, 4 h” value:
1. B5  7.3 µM
2. B1  4.1 µM
3. B8  3.6 µM
4. B9  2.2 µM
5. B2  1.6 µM
6. B4  1.23 µM
7. B3  0.87 µM
8. B7  0.8 µM
9. B6  0.74 µM
10. B10  0.4 µM

These molecules were tested on human red blood cells (assay: Hemolytic activity). Conditions: not given.
Format: cell-based
Experimental: Hemolytic activity was studied by incubating the fusion constructs with human red blood cells at concentrations of 0.01, 0.1, 1, 10 and 50 μM for 2 hours. Saline and 0.1% Triton served as controls.
Hemolytic activity of the compounds was studied by incubating EP-301 and EP-302 with human red blood cells at concentrations of 0.01, 0.1, 1, 10 and 50 μM for 2 hours.

In the case of CC(C)C[C@H](NC(=O)[C@H](CCCNC(=N)N)NC(=O)[C@H](C)NC(=O)[C@H](CCCNC(=N)N)NC(=O)[C@H](CCCCN)NC(=O)[C@H](C)NC(=O)[C@H](Cc1ccccc1)NC(=O)[C@H](CCCCN)NC(=O)[C@H](CCCCN)NC(=O)[C@H](C)NC(=O)[C@H](Cc1ccccc1)NC(=O)[C@H](CCCCN)NC(=O)[C@H](C)NC(=O)[C@H](Cc1ccccc1)NC(=O)[C@H](CCCCN)NC(=O)[C@H](CCCCN)NC(=O)[C@H](C)NC(=O)[C@H](Cc1ccccc1)NC(=O)[C@H](CCCCN)NC(=O)[C@H](C)NC(=O)[C@H](Cc1ccccc1)NC(=O)[C@@H](N)CCCCN)C(=O)N[C@@H](CCC(N)=O)C(=O)N[C@@H](CCCNC(=N)N)C(=O)N[C@@H](CCCNC(=N)N)C(=O)O (H-KFAKFAKKFAKFAKKFAKRARLQRR-OH), the HA50 is reported as “Not hemolytic”.

Same assay, conditions: human red blood cells, 2 hours

For CC(C)C[C@H](NC(=O)[C@H](CCCNC(=N)N)NC(=O)[C@H](C)NC(=O)[C@H](Cc1ccccc1)NC(=O)[C@H](CCCCN)NC(=O)[C@H](C)NC(=O)[C@H](Cc1ccccc1)NC(=O)[C@H](CCCCN)NC(=O)[C@H](CCCCN)NC(=O)[C@H](C)NC(=O)[C@H](Cc1ccccc1)NC(=O)[C@H](CCCCN)NC(=O)[C@H](C)NC(=O)[C@H](Cc1ccccc1)NC(=O)[C@H](CCCCN)NC(=O)[C@H](CCCCN)NC(=O)[C@H](C)NC(=O)[C@H](Cc1ccccc1)NC(=O)[C@H](CCCCN)NC(=O)[C@H](C)NC(=O)[C@H](Cc1ccccc1)NC(=O)[C@@H](N)CCCCN)C(=O)N[C@@H](Cc1ccccc1)C(=O)N[C@@H](C)C(=O)N[C@@H](CCCCN)C(=O)O (H-KFAKFAKKFAKFAKKFAKFARLFAK-OH), the HA50 was 14.3 µM and 14.3 ± 2.1 µM.

The molecules below were run on MDA-MB-435S breast cancer cells (assay: not given). Conditions: 4 h.
Format: cell-based, human
Experimental: Twelve different fusion constructs were analyzed for anti-cancer activity in vitro against MDA-MB-435S breast cancer cells and for hemolytic activity in vitro to human red blood cells. Fusion constructs of the following sequence were tested:
The peptide conjugates were freshly dissolved in saline and added into cancer cell seeded multi-well plates at increasing concentrations of 0, 0.001, 0.01, 0.1, 1, 2, 5, 10 and 100 μM. Incubations were conducted for 4 h at 37° C. Cell viability was determined using formazan conversion assays (MTT assays). Controls were treated with USP saline or 0.1% TritonX-100™ as reference for 0 and 100% cell death, respectively. Cytotoxicity was evaluated as an IC50 value.

In order of falling IC50:
1. CC(C)C[C@H](NC(=O)[C@H](CCCNC(=N)N)NC(=O)[C@H](C)NC(=O)[C@H](CO)NC(=O)[C@H](CCCCN)NC(=O)[C@H](C)NC(=O)[C@H](Cc1ccccc1)NC(=O)[C@H](CCCCN)NC(=O)[C@H](CCCCN)NC(=O)[C@H](C)NC(=O)[C@H](Cc1ccccc1)NC(=O)[C@H](CCCCN)NC(=O)[C@H](C)NC(=O)[C@H](Cc1ccccc1)NC(=O)[C@H](CCCCN)NC(=O)[C@H](CCCCN)NC(=O)[C@H](C)NC(=O)[C@H](Cc1ccccc1)NC(=O)[C@H](CCCCN)NC(=O)[C@H](C)NC(=O)[C@H](Cc1ccccc1)NC(=O)[C@@H](N)CCCCN)C(=O)N[C@@H](CO)C(=O)N[C@@H](C)C(=O)N[C@@H](CCCCN)C(=O)O (H-KFAKFAKKFAKFAKKFAKSARLSAK-OH)  4.1 µM
2. CC(C)C[C@H](NC(=O)[C@H](CCCNC(=N)N)NC(=O)[C@H](C)NC(=O)[C@H](CCCNC(=N)N)NC(=O)[C@H](CCCCN)NC(=O)[C@H](C)NC(=O)[C@H](Cc1ccccc1)NC(=O)[C@H](CCCCN)NC(=O)[C@H](CCCCN)NC(=O)[C@H](C)NC(=O)[C@H](Cc1ccccc1)NC(=O)[C@H](CCCCN)NC(=O)[C@H](C)NC(=O)[C@H](Cc1ccccc1)NC(=O)[C@H](CCCCN)NC(=O)[C@H](CCCCN)NC(=O)[C@H](C)NC(=O)[C@H](Cc1ccccc1)NC(=O)[C@H](CCCCN)NC(=O)[C@H](C)NC(=O)[C@H](Cc1ccccc1)NC(=O)[C@@H](N)CCCCN)C(=O)N[C@@H](CCC(N)=O)C(=O)O (H-KFAKFAKKFAKFAKKFAKRARLQ-OH)  3.6 µM
3. CC(C)C[C@H](NC(=O)[C@H](CCCNC(=N)N)NC(=O)[C@H](C)NC(=O)[C@H](CCCNC(=N)N)NC(=O)[C@H](CCCCN)NC(=O)[C@H](C)NC(=O)[C@H](Cc1ccccc1)NC(=O)[C@H](CCCCN)NC(=O)[C@H](CCCCN)NC(=O)[C@H](C)NC(=O)[C@H](Cc1ccccc1)NC(=O)[C@H](CCCCN)NC(=O)[C@H](C)NC(=O)[C@H](Cc1ccccc1)NC(=O)[C@H](CCCCN)NC(=O)[C@H](CCCCN)NC(=O)[C@H](C)NC(=O)[C@H](Cc1ccccc1)NC(=O)[C@H](CCCCN)NC(=O)[C@H](C)NC(=O)[C@H](Cc1ccccc1)NC(=O)[C@@H](N)CCCCN)C(=O)N[C@@H](CCC(N)=O)C(=O)N[C@@H](CCCNC(=N)N)C(=O)N[C@@H](CCCNC(=N)N)C(=O)O (H-KFAKFAKKFAKFAKKFAKRARLQRR-OH)  1.6 ± 0.05 µM
4. CC(C)C[C@H](NC(=O)[C@H](CCCNC(=N)N)NC(=O)[C@H](C)NC(=O)[C@H](Cc1ccccc1)NC(=O)[C@H](CCCNC(=N)N)NC(=O)[C@H](CCCNC(=N)N)NC(=O)[C@H](CCC(N)=O)NC(=O)[C@H](CC(C)C)NC(=O)[C@H](CCCNC(=N)N)NC(=O)[C@H](C)NC(=O)[C@@H](NC(=O)[C@H](CCCCN)NC(=O)[C@H](C)NC(=O)[C@H](Cc1ccccc1)NC(=O)[C@H](CCCCN)NC(=O)[C@H](CCCCN)NC(=O)[C@H](C)NC(=O)[C@H](Cc1ccccc1)NC(=O)[C@H](CCCCN)NC(=O)[C@H](C)NC(=O)[C@H](Cc1ccccc1)NC(=O)[C@H](CCCCN)NC(=O)[C@H](CCCCN)NC(=O)[C@H](C)NC(=O)[C@H](Cc1ccccc1)NC(=O)[C@H](CCCCN)NC(=O)[C@H](C)NC(=O)[C@H](Cc1ccccc1)NC(=O)[C@@H](N)CCCCN)C(C)C)C(=O)N[C@@H](Cc1ccccc1)C(=O)N[C@@H](C)C(=O)N[C@@H](CCCCN)C(=O)O (H-KFAKFAKKFAKFAKKFAKVARLQRRFARLFAK-OH)  0.4 ± 0.002 µM

Same assay, conditions: MDA-MB-435S, 4 h at 37° C, MTT; read-out: IC50

In order of falling IC50:
1. CC(C)C[C@H](NC(=O)[C@H](CCCNC(=N)N)NC(=O)[C@H](C)NC(=O)[C@H](Cc1ccccc1)NC(=O)[C@H](CCCCN)NC(=O)[C@H](C)NC(=O)[C@H](Cc1ccccc1)NC(=O)[C@H](CCCCN)NC(=O)[C@H](CCCCN)NC(=O)[C@H](C)NC(=O)[C@H](Cc1ccccc1)NC(=O)[C@H](CCCCN)NC(=O)[C@H](C)NC(=O)[C@H](Cc1ccccc1)NC(=O)[C@H](CCCCN)NC(=O)[C@H](CCCCN)NC(=O)[C@H](C)NC(=O)[C@H](Cc1ccccc1)NC(=O)[C@H](CCCCN)NC(=O)[C@H](C)NC(=O)[C@H](Cc1ccccc1)NC(=O)[C@@H](N)CCCCN)C(=O)N[C@@H](Cc1ccccc1)C(=O)N[C@@H](C)C(=O)N[C@@H](CCCCN)C(=O)O (H-KFAKFAKKFAKFAKKFAKFARLFAK-OH)  1.23 ± 0.7 µM
2. CC(C)C[C@H](NC(=O)[C@H](CCCNC(=N)N)NC(=O)[C@H](C)NC(=O)[C@H](Cc1ccccc1)NC(=O)[C@H](CCCNC(=N)N)NC(=O)[C@H](CCCNC(=N)N)NC(=O)[C@H](CCC(N)=O)NC(=O)[C@H](CC(C)C)NC(=O)[C@H](CCCNC(=N)N)NC(=O)[C@H](CCCCN)NC(=O)[C@H](C)NC(=O)[C@H](Cc1ccccc1)NC(=O)[C@H](CCCCN)NC(=O)[C@H](CCCCN)NC(=O)[C@H](C)NC(=O)[C@H](Cc1ccccc1)NC(=O)[C@H](CCCCN)NC(=O)[C@H](C)NC(=O)[C@H](Cc1ccccc1)NC(=O)[C@H](CCCCN)NC(=O)[C@H](CCCCN)NC(=O)[C@H](C)NC(=O)[C@H](Cc1ccccc1)NC(=O)[C@H](CCCCN)NC(=O)[C@H](C)NC(=O)[C@H](Cc1ccccc1)NC(=O)[C@@H](N)CCCCN)C(=O)N[C@@H](Cc1ccccc1)C(=O)N[C@@H](C)C(=O)N[C@@H](CCCCN)C(=O)O (H-KFAKFAKKFAKFAKKFAKRLQRRFARLFAK-OH)  0.74 ± 0.12 µM
